In experiment [1] the target is T1, 人Claudin18.2 (过表达细胞) (human, UniProt P56856-2 1-261).
T1 construct: whole, on cells; also called CLDN18.2; Claudin18.2细胞
The experiment in a line: cell ELISA on 293 cells transfected with human Claudin18.2.

Experiment [2] addresses T2, 人Claudin18.1 (过表达细胞) (human, UniProt P56856 1-261).
T2 construct: whole, on cells; also called CLDN18.1; Caludin18.1
In words: cell ELISA on 293 cells transfected with human Claudin18.1.

The target in experiment [3] is T1, 人Claudin18.2 (过表达细胞). The experiment in a line: cell-based or functional assay.
The target in experiment [4] is T3, 人Claudin18.2-His重组蛋白(Kactus,Cat.CLD-HE1821) (human, UniProt P56856-2 1-261, limits assumed).
T3 construct: Bought protein; also called Claudin18.2重组蛋白; not shown: His tag
The experiment in a line: ELISA, human Claudin18.2-His coated. A general note: ELISA stands for enzyme-linked immunosorbent assay.

B1: 人源化抗体HA1LA1 (antibody, human IgG1, kappa, V domains shown)
VH: QVQLVESGGGVVQPGRSLRLSCAASGFTFSTYGVHWVRQAPGKGLEWVAVIWNGGNTDYNAAFISRFTISRDNSKNTLYLQMNSLRAEDTAVYYCARNRRGGGFGMDYWGQGTLVTVSS
VL: DIVMTQSPDSLAVSLGERATINCKSSQSLLNGGIQKNYLTWYQQKPGQPPKLLIYWASTRESGVPDRFSGSGSGTDFTLTISSLQAEDVAVYYCQNAYTYPFTFGQGTKLEIKR
notes: also called Claudin18.2单抗对照
For B1, the results for the concentration for a half-maximal effect (EC50) in experiment [1] and in experiment [4] were 0.028 µg/mL and 0.49 µg/mL, respectively. The binding result in experiment [2] is “no binding”. For the same molecule, the “ADCC活性 EC50 (靶细胞的裂解百分比, LDH; NUGC4-Claudin18.2靶细胞, NK92效应细胞)” value in experiment [3] is 0.0126 nM.

B2: 对照抗体(来自专利CN20148000912) (antibody, V domains shown)
VH: QIQLVQSGPELKKPGETVKISCKASGYTFTNYGMNWVKQAPGKGLKWMGWINTNTGEPTYAEEFKGRFAFSLETSASTAYLQINNLKNEDTATYFCARLGFGNAMDYWGQGTSVTVSS
VL: DIVMTQSPSSLTVTAGEKVTMSCKSSQSLLNSGNQKNYLTWYQQKPGQPPKLLIYWASTRESGVPDRFTGSGSGTDFTLTISSVQAEDLAVYYCQNDYSYPLTFGAGTKLELK
With B2, the EC50 – broadly, the concentration giving half of the maximal effect – in experiment [1] was 0.119 µg/mL. Besides, the binding result in experiment [2] was “no binding”. The “ADCC活性 EC50 (靶细胞的裂解百分比, LDH; NUGC4-Claudin18.2靶细胞, NK92效应细胞)” value in experiment [3] came to 0.0575 nM.

Source of the values: patent CN112830969A (JIANGSU NOVOMAB BIOPHARMACEUTICALS INC, dated 2021).
